Data on one molecule can be found in article PMC6769586.

Where a chain is given by its changes, count along the chain named.

Test [1] addresses T1, CYP2C8-K399R (human) (UniProt P10632).
T1 sequence: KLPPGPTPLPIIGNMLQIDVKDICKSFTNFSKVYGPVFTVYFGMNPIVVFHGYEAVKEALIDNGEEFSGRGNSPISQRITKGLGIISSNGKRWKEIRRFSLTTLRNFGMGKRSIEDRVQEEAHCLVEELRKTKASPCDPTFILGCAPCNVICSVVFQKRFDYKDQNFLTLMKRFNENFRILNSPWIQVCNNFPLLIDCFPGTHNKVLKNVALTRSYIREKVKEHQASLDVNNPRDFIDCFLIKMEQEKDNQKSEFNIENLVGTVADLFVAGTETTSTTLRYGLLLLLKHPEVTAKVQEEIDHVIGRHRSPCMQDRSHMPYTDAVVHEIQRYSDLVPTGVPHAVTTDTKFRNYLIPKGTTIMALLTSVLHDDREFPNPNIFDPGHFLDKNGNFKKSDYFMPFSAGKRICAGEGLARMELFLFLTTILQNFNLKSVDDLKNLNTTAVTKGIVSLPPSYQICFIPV

In test [2] the target is T2, CYP2C8-R139K (human) (UniProt P10632).
T2 sequence: T1 sequence with R112K, R372K

The target in test [3] is T3, Cytochrome P450 2C8 (CYP2C8*1, wildtype) (human) (UniProt P10632).
T3 sequence: T1 sequence with R372K

Test [4] deals with T4, Cytochrome P450 2C8 R139K/K399R (CYP2C8*3) (human) (UniProt P10632).
T4 sequence: T1 sequence with R112K

B1: Cytochrome P450 reductase (enzyme)
chain: MGDSHEDTSATMPEAVAEEVSLFSTTDMVLFSLIVGVLTYWFIFRKKKEEIPEFSKIQTTAPPVKESSFVEKMKKTGRNIIVFYGSQTGTAEEFANRLSKDAHRYGMRGMSADPEEYDLADLSSLPEIDKSLVVFCMATYGEGDPTDNAQDFYDWLQETDVDLTGVKFAVFGLGNKTYEHFNAMGKYVDQRLEQLGAQRIFELGLGDDDGNLEEDFITWREQFWPAVCEFFGVEATGEESSIRQYELVVHEDMDVAKVYTGEMGRLKSYENQKPPFDAKNPFLAAVTANRKLNQGTERHLMHLELDISDSKIRYESGDHVAVYPANDSALVNQIGEILGADLDVIMSLNNLDEESNKKHPFPCPTTYRTALTYYLDITNPPRTNVLYELAQYASEPSEQEHLHKMASSSGEGKELYLSWVVEARRHILAILQDYPSLRPPIDHLCELLPRLQARYYSIASSSKVHPNSVHICAVAVEYEAKSGRVNKGVATSWLRAKEPAGENGGRALVPMFVRKSQFRLPFKSTTPVIMVGPGTGIAPFMGFIQERAWLREQGKEVGETLLYYGCRRSDEDYLYREELARFHKDGALTQLNVAFSREQAHKVYVQHLLKRDREHLWKLIHEGGAHIYVCGDARNMAKDVQNTFYDIVAEFGPMEHTQAVDYVKKLMTKGRYSLDVWS
Turning to B1, the stopped-flow CO binding (first electron transfer from CPR), fast phase k1, 1:1 CPR:CYP, 70 uM paclitaxel, 37 °C in test [1] came to 0.445 s⁻¹; in test [2], 0.406 s⁻¹; in test [3], 0.468 s⁻¹. In test [1], this molecule returned a stopped-flow CO binding (first electron transfer from CPR), slow phase k2, 1:1 CPR:CYP, 70 uM paclitaxel, 37 °C of 19.4 ms^-1. Also, the stopped-flow CO binding (first electron transfer from CPR), monophasic k2, 3:1 CPR:CYP, 70 uM paclitaxel, 37 °C in test [2] turned out to be 6.02 ms^-1; in test [4], 13.7 ms^-1.
